The target of the test is GAD-SNX5, C-terminally truncated splice variant of SNX5 lacking the last 45 amino acids. Put plainly: yeast two-hybrid β-galactosidase liquid assay. Particulars: mean of four transformants with SD; parent: est. 190; read off a plot.

“LexA-VPS13A(VAB), LexA DNA-binding domain fusion to the VAB domain of VPS13A (from UniProt Q96RL7) N2418S”: the response stood at 21 U.
